# From patent publication EP2246362B1, “Polymer conjugates of mutated neublastin” (Biogen Idec MA Inc., priority 2003, dated 2004)
# B1: 3 (,4) X 10 kDa PEG NBN106-N95K: mixed population of NBN106-N95K homodimers conjugated to three or four 10 kDa PEG moieties, average 3.3 PEG per dimer (conjugate)
# chain: ARATDARGCRLRSQLVPVSALGLGHSSDELIRFRFCSGSCRRARSPHDLSLASLLGAGALRSPPGSRPISQPCCRPTRYEAVSFMDVKSTWRTVDHLSATACGCLG
# Legend:
# [1] = Pharmacokinetic studies in rats (circulating levels after IV, s.c. or i.p. administration); format: in vivo, Sprague Dawley rats
# Procedure: The proteins were below the threshold of detection in the serum following subcutaneous administration. To increase bioavailability of neublastin, PEGylated forms of mutated neublastin were constructed.
# The pharmokinetic properties of various PEGylated and non-PEGylated mutated neublastin products in rat and mouse models were examined (see Table 8 for summary of results).
# Following a 1 mg/kg IV administration in Sprague Dawley rats, peak levels of PEGylated mutated neublastin of 3000 ng/mL were detected after 7 minutes, and levels of 700 ng/mL were detected after 24 h, 200 ng/mL after 48 h, and 100 ng/mL after 72 h. In contrast for non-PEGylated mutated neublastin N95K following a 1 mg/kg IV administration, levels of 1500 ng/mL were detected after 7 minutes, but then the levels quickly dropped to 70 ng/mL after 3 h and were not detectable after 7 h. The effects of PEGylation were even more pronounced in animals treated with PEGylated neublastin by subcutaneous administration.
# Following a 1 mg/kg s.c. administration, circulating levels of PEGylated neublastin reached a maximum of 200 ng/mL after 24 h and remained at this level for the duration of the three day study.
# The analysis of the PEGylated N95K samples are complicated by the presence of adducts comprising 2, 3 and 4 PEGs per molecule, which each will display a different PK profile. In early PK studies, mice were used to facilitate screening through a variety of candidates and routes of administration. […] This difference in bioavailability was particularly pronounced following i.p. administration. Levels in mice reached 1600 ng/mL after 7 hr and remained at 400 ng/mL after 24 hr. In contrast, rat levels were constant at 100 ng/mL for 4-48 hr.
# c-Ret = target: T1, c-Ret (Mus musculus, UniProt O35118+P35546); test: Kinase Receptor Activation (KIRA) ELISA: neublastin dependent phosphorylation of c-Ret in NB41A3-mRL3 cells; format: cell-based, murine
# T1 construct: NB41A3-mRL3 cells, an adherent murine neuroblastoma cell line which expresses Ret and GFRα3; endogenous in cells; host or cells: NB41A3-mRL3 (murine neuroblastoma)
# Procedure: The potency of PEGylated mutated rat neublastin was measured using neublastin dependent activation/ phosphorylation of c-Ret as a reporter for neublastin activity in an ELISA that was specific for the presence of phosphorylated RET. NB41A3-mRL3 cells, an adherent murine neuroblastoma cell line which expresses Ret and GFRα3, were plated at 2 x 10^5 cells per well in 24-well plates in Dulbecco's modified eagle medium (DMEM), supplemented with 10 % fetal bovine serum, and cultured for 18 h at 37 °C and 5 % CO2.
# The cells were washed with PBS, and treated with serial dilutions of neublastin in 0.25 mL of DMEM for 10 min at 37°C and 5 % CO2. Each sample was analyzed in duplicate. The cells were washed with 1 mL of PBS, and lysed for 1h at 4 °C with 0.30 mL of 10 mM Tris HC1, pH 8.0, 0.5 % Nonidet P40, 0.2 % sodium deoxycholate, 50 mM NaF, 0.1 mM Na3 VO4,1 mM phenylmethylsulfonyl fluoride with gently rocking the plates. The lysates were further agitated by repeated pipetting and 0.25 mL of sample was transferred to a 96-well ELISA plate that had been coated with 5 µg/mL of anti-Ret mAb (AA.GE7.3) in 50 mM carbonate buffer, pH 9.6 at 4°C for 18 h, and blocked at room temperature for one hour with block buffer (20 mM Tris HC1 pH 7.5, 150 mM NaCl, 0.1% Tween-20 (TBST) containing 1 % normal mouse serum and 3 % bovine serum albumin).
# After a 2 h incubation at room temperature, the wells were washed 6-times with TBST. Phosphorylated Ret was detected by incubating the wells at room temperature for 2 h with 2 µg/mL of horseradish peroxidase (HRP)-conjugated anti-phosphotyrosine 4G10 antibody in block buffer, washing 6-times with TBST, and measuring HRP activity at 450 nm with a colorometric detection reagent. The absorbance values from wells treated with lysate or with lysis buffer were measured and the background corrected signal was plotted as a function of the concentration of neublastin present in the activation mixture.
# Neublastin activity was determined by its ability to stimulate c-Ret phosphorylation in NB41A3-mRL3 cells using the KIRA ELISA described in Example 3. Phosphorylated Ret was detected by incubating (2 hours) the captured receptor with HRP-conjugated phosphotyrosine antibody (4G10; 0.2 µg per well). Following the incubation, the wells were washed six times with TBST, and the HRP activity detected at 450 nm with a colorimetric assay. The absorbance values from wells treated with lysate or with lysis buffer alone were measured, background corrected, and the data plotted as a function of the concentration of neublastin present in the activation mixture.
# [2] = system: Chung L5/L6 spinal nerve ligation ("SNL") model; test: Reversal of tactile allodynia and thermal hyperalgesia in the spinal nerve ligation model (Von Frey and Hargreave's tests); format: in vivo, Sprague-Dawley male rats
# Procedure: Here, we describe studies to address the reversal effect ofpegylated N95K neublastin on tactile allodynia and thermal hyperalgesia in the Chung L5/L6 spinal nerve ligation ("SNL") model. Sprague-Dawley male rats (230 - 380g) were divided into two groups. All rats received the spinal nerve ligation. One group of rats (n=6) was administered vehicle by subcutaneous injection. A second group of rats (n=6 per group) were administered pegylated N95K neublastin (3,(4) X 10 kDa PEG NBN106-N95K) by subcutaneous injection at 10 µg/kg. 3(,4) X 10 kDa PEG NBN106-N95K, comprised neublastin protein that was E. coli-derived and contained an Asn-to-Lys amino acid substitution at position 95, then truncated (amino-terminus truncation of 7 amino acids; NBN106), and finally pegylated with an average of 3.3 PEG moieties per dimer ofNBN, using methoxylpoly(ethylene glycol)-succinimidyl propionate (SPA-PEG) with a molecular mass of 10,000 Da as the reactant. The vehicle consisted of 5 mM phosphate and 150 mM sodium chloride at pH 6.5. Subcutaneous injections were administered on days 3, 5, 7, 10, 12 and 14 following the operation (post-SNL). The Von Frey (Chaplan et al. (1994), J. Neurosci. Meth. 53: 55-63) and Hargreave's (Hargreaves et al. (1988), Pain. 32: 77-88) behavioral tests were used to monitor tactile and thermal responses, respectively. These pain responses were monitored prior to the spinal nerve ligation to establish baseline responses, on day 2 post-SNL to verify the presence of tactile and thermal hyperalgesia, and then on days 3, 5, 7, 10, 12, 14 and 15 post-SNL. To assess statistical significance of drug treatment relative to vehicle treatment, a 1-way analysis of variance (1-way ANOVA) was carried out followed by a post-hoc Student Neuman Keuls (SNK) test.
# [3] = parameters: species or system mice; conditions: mouse, in vivo
# From the text: The pharmokinetic properties of various PEGylated and non-PEGylated mutated neublastin products in rat and mouse models were examined (see Table 8 for summary of results). The analysis of the PEGylated […] samples are complicated by the presence of adducts comprising 2, 3 and 4 PEGs per molecule, which each will display a different PK profile. In early PK studies, mice were used to facilitate screening through a variety of candidates and routes of administration. […] This difference in bioavailability was particularly pronounced following i.p. administration. Levels in mice reached 1600 ng/mL after 7 hr and remained at 400 ng/mL after 24 hr. In contrast, rat levels were constant at 100 ng/mL for 4-48 hr. Two surprising and unexpected results emerged from the PK studies summarized in Table 8: 1) PEGylation of the amino-terminal amino acids of non-glycosylated neublastin was not sufficient to increase serum exposure substantially, and 2) PEGylation of the amino-terminal amino acid(s) of neublastin together with modification (e.g. PEGylation or glycosylation) of amino acid 95 was sufficient to increase serum exposure substantially.
# T1 sequence (P35546 29-1115): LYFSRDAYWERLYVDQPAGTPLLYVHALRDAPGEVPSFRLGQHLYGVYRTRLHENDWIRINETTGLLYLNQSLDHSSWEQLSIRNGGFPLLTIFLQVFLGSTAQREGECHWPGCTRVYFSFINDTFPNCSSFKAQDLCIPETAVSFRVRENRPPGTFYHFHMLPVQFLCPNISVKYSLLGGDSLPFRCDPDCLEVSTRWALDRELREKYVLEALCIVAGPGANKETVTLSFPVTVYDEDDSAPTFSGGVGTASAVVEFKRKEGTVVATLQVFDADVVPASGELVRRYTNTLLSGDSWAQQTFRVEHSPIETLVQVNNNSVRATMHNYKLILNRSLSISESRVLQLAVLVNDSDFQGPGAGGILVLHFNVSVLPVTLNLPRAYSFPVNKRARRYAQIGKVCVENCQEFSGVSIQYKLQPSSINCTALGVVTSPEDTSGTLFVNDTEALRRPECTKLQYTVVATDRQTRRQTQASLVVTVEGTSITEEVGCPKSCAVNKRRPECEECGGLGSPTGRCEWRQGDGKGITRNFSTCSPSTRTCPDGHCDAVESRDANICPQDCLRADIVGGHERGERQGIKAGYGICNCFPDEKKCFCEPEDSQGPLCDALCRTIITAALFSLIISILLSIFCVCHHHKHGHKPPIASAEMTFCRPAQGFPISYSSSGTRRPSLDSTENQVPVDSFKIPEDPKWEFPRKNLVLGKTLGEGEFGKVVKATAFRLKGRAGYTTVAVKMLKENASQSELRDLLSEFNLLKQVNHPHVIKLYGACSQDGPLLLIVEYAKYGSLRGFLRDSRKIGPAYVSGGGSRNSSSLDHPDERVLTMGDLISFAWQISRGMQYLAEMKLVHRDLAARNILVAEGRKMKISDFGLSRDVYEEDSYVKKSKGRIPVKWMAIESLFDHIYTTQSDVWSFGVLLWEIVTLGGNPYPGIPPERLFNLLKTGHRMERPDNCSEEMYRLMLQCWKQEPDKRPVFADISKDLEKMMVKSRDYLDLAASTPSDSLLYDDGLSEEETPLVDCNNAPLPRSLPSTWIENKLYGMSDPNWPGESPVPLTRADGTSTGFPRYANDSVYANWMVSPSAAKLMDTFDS
# T1 sequence (O35118 29-397): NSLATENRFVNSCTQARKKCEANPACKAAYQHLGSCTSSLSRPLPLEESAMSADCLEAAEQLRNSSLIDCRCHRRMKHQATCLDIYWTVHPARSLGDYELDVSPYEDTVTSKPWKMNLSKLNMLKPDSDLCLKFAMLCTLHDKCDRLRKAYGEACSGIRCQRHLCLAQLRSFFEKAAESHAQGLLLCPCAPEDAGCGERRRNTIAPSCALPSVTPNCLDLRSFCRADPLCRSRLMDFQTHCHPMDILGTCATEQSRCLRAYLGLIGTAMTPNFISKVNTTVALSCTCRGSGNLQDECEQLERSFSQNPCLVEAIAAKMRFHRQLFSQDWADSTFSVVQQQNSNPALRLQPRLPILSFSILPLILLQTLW
molecule,measurement,setting,value
B1,levels after 7 minutes,"[1]; 1 mg/kg IV, Sprague Dawley rats, 7 minutes",3000 ng/mL
same,levels after 24 h,"[1]; 1 mg/kg IV, Sprague Dawley rats, 24 h",700 ng/mL
same,levels after 48 h,"[1]; 1 mg/kg IV, Sprague Dawley rats, 48 h",200 ng/mL
same,maximum circulating levels,"[1]; 1 mg/kg s.c., maximum after 24 h, remained at this level for the three day study",200 ng/mL
same,activity / potency in the KIRA ELISA (in words),c-Ret; compared with wild-type NBN113 / mature form,indistinguishable from that of the wild-type NBN113 material
same,effect of two freeze-thaw cycles on potency,c-Ret; potency in KIRA ELISA after two freeze-thaw cycles,no effect
same,normalization of pain behaviors (tactile and thermal hyperalgesia),"[2]; 3 µg/kg s.c. on days 3, 5, 7, 10, 12 and 14, data not shown, onset somewhat slower",significant normalization
same,reversal of both types of neuropathic pain (tactile allodynia and thermal hyperalgesia),"[2]; 10 µg/kg s.c. on days 3, 5, 7, 10, 12 and 14 post-SNL, rats",substantial and statistically significant reversal
same,time after initiation of administration at which effect on thermal sensitivity and tactile allodynia first became statistically significant,"[2]; 10 µg/kg s.c., rats",4 days
same,time after initiation of administration at which effect on thermal sensitivity and tactile allodynia reached a plateau,"[2]; 10 µg/kg s.c., rats",approximately 4 days
same,levels in mice after 7 hr,[3]; ip,1600 ng/mL
same,levels in mice after 24 hr,[3]; ip,400 ng/mL
same,Exposure in Mice After s.c. Administration,[3]; sc,++
